Results as given in the nanobody polyreactivity screen of Harvey et al. (2022).

Assay: yeast display, Sf9 membrane polyspecificity reagent, FACS + sequencing; frameworks hold sequencing errors
In short: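 A nanobody's polyreactivity label depends on the gate it was sorted from. Yeast display cells were stained with 10% biotinylated, detergent-solubilized Sf9 membrane reagent for 1 hour at 4 °C, enriched on streptavidin microbeads and sorted by FACS. The low and high (top ~1%) gates were set on anti-HA fluorescence for expression and streptavidin fluorescence for reagent binding.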

Sequence | polyreactivity (PSR sort gate)
QDQLVESGGGLVQAGGSLRLSCAASGRTFAAYAMGWYRQAPGKERELVATIRRGGTTDYADSVKGRFTISRDNAKNTVYLQMNSLKPEDTAVYYCNARSRTYRTRRYDYWGQGTQVTVSS | high polyreactivity
QVQLVESGGGLVQAGGSLRLSCAATGFTFRTYAMGWYRQAPGKERELVAAITVSGGTYYADSVKGRFTITRDNAKNSFYFQMISLKPEDTAVYYCTAKRFRTGFDYWGQGTQVTVSS | low polyreactivity
QVQLVESGGGLVQAGGSLRLSCAASGSTFPSNAMGWYRQAPGKERELVAAISSGGRTYYADSVKGRFTISRDNAKNTVYLQMNSLKPEDTAVYYCAADTDRRSPFDYWGQGTQVTVSS | high polyreactivity
QVQLEESGGGFVQAGGSLRLSCAASGFIFSSNAMGWYRQAPGKERELVASISSGGSTNYADSVKGRFTISRDNAKNTVYLQMNSLKPEDTAVYYCAADGISLYATAYDYWGQGTQVTVSS | low polyreactivity
QVQLVESGGGLVQAGGSLRLSCAASGFIFRGYAMGWYRQAPGKERELVAAISTGGGRTYYADSVKGRFTISRDNAKNTVYLQMNSLKPEDTAVYYCNRRSYTQVLMDYWGQGTQVTVSS | high polyreactivity
QVQLVESVGVLVQAGGSLRLSSAASGGILPRYAMGWYRQAPGKERELVAVITRGGSTYYADSVKGRFTISRDNAKNTVYLQMNSLKPEDNAVYYFAKYRYQTGIFYYWGQGTQVTVSS | high polyreactivity
QVQLVESGGGLVQAGGSLRLSCAASGRTFPGYAMGWYRQAPGKERELVAAITSSGDDTYYADSVKGRFTISRDNAKNTVYLQMNSLKPEDTAVYYCRLFRRSADSSYDYEYWGQGTQVTVSS | low polyreactivity
QVQLVESGGGLVQAGGTLRLSCAPSARTFDRNAMGWYRQAPGKERELVASISWVGTSTYYADSVKGRFTISRDNAKNTVYLQMNSLKPDDSAVYYCAARRVKYISLDYWGQGTQVTVSS | low polyreactivity
QVQLVESGGGLVQAGGSLRLSCAASGGAFRYYTMGWYRPAPGKDRELVASISGGGRTYYADSVKGRFTISRDNAKNSVYLQMNSLKPEDTAVYYCNARNRVYYTMSGFGYLGQGTQVTVSS | high polyreactivity
QVQLVESGGGLVQAGGSLRLSCAASGRTFLWYAMGWYRQAPGKEREFVAAITSSGGDTYYADSVKGRFTISRDNAKNTVYLQMNSLKPADTAVYYCAARTRKWFDYAIHYYWGQGTQVTVSS | low polyreactivity
QVQLVESGGGLVQAGGSLRLSCAASGRILDVYVMGWYRQAPGKERELVAAISSGGSTYYADSVKGRFTISRDNAKNTVYLQMNSLKPEDTAVYYCAFYYWGQGTQVTVSS | high polyreactivity
QVQLVESGGGLVQAGGSLRLSCAASGRTFAYNAMGWYRQAPGKERELVADITSGGSTYYADSVKGRFTISRDNAKNTVYLQMNRLKPEDTAVYYCAAYPQFWYWDYNYWGQGTQVTVSS | high polyreactivity
QVQLVESGGGLVQAGGSLRLSCAASGRIFTGYAMGWSRQAPGKERELVASITWRGGSTSYADSVKGRFTISRDNAKNTVYLQMNRLKPEDTAVYYCAAQKWYYPYYWGQGTQVTVSS | high polyreactivity
QVQLVESGGGLVQAGGSLRLSCAASGSIFLRYAMGWYRQAPGKERELVAAISLSGGNTYYADSVKGRFTISRDNSKNTVYLQMNSLKPEDTAVYYCAATRTKRKFDYWGQGTQVTVSS | high polyreactivity
QVQLVESGGGLDQAGGSLRLSCAASGLIFKLYDMGWSRQAPGKERELVATISRGTSTYYADSVKGRFTISRDNAKNTVDLQMNSLKPEDTAVYYCNARLDYGRAFPLFKYISGMYYWGQGTQVTVSS | low polyreactivity
EVQLVESGGGLVQPGGSLRLSCAASGYIYSRYRMGWYRQAPGKGREFVAAISGGSSTNYADSVKGRFTISRDNSKNTVYLQMNSLRAEDTAVYYCAAYQIDSDPRVYWGQGTQVTVSS | low polyreactivity

Sequence | polyreactivity (PSR sort gate)
QGQLVESGGGLVQAGGSLRLSCAPTGRTFAHYARGWYRQAHWTERELVAGITRRAGSTYYADSVKGRFTISRDNAKHSVYLHMNSLKPEETEVYYCAAPRDWDAGDYWGQGTQVTVSS | high polyreactivity
QVEHVDSGGGLVQAGGSLRLSCAASGRTIWDYMGWYRQAPGKEREVVATITSSGGSTYYADSVKGRFTISRDNAKNTVYLQMNSLKPEDTAVYYCNADWYLWSTFAQGYGYWGQGTQVTVSS | high polyreactivity
QEQLQESGGCLVQAGGSLRLSCAASGSIFKVVDMGLYRQSPAKEREFVATIGEGGKTYYADSVKGRFTISRDNEKNTVYLQMNSLKPEDTAVYFYAVVLGTSYRYTYWGEGTQVTVSS | low polyreactivity
QVQLVESGGGLVQAGGSLRLSCAASGSIHFEYMGWYRQAPGKERELVAAITIRDGGTYYADSVKGRFTISRDNAKNTVYLQMNSLKPEDTAVYYCNADFSGGWRYDYWGQGTQVTVSS | low polyreactivity
QVLLVESGGGLVQAGGSLRLSCAASGLTFVYVMGWYRQAPGKERELVAGISYSAGRTYYADSVKGRFTISRDNAKNTVYLQMNSLKPEDTAVYYCAATKRGRPQRGYWGQGTQVTVSS | high polyreactivity
QVQHVESGGGLVQAGGSLRLSCAASGRTFEVFAMGWYRQAPRKERELVATITYSGGITYYADSVKGRFTISRDKAKNTVYLQMNSLKPEDTAVYYPIGVGGDYDYCGQGTQVTVSS | low polyreactivity
QVQLVESGGGLVQAGGSLRLICAASGITFSAYAMGWYRQAPGKERELVAAITRSGGITYYADSVKGRFTISRDNAKNSVYLQMNSLKPEDTAVYYCNKPYASPYYDSWGQGTQVTVSS | high polyreactivity
QVQLVESGGGLVQAGGSLRLSCAASGRIFGAYAMGWYRPAPGKERELVAAITSRGSTNYADSVKGRFTISRDHAKNTVYLQMNSLNPEDTAVYYCARRAVYSKRRYDYWGQGTQVTVSS | low polyreactivity
QVQLVESGGGLVQAGGSLRLSCAASGFIFQSYAMGWYRQAPGKERELVAAITRSGGRTYYADSVKGRFTISRDNAKNTVYLQMNSLKPEDTAVYYCAAETSYPGIYRFYYWGQGTQVTVSS | high polyreactivity
QVQLVESGGGLVQAGGSLRLSCAASGSIFRNYAMGRSRQAPGKERELVAAITSGVRTNYADSVKGRFTISRDNAKNTVYLQMNSLKPEDTAVYYCNKGYNAVWRYRGDYWGQGTHVTVSS | high polyreactivity
QVQLVESGGGLVQAGGSLRLSCAASGNIFRNNAMGWYRQAPGKERELVAAISYSGGRTYYADSVKGRFTISRDNAKNTVYLQMNSLKPEDTAVYYCAVTYGRNADDYEYWGQGTQVTVSS | high polyreactivity
QVQLVESGGGLVQAGGSLRLSCAASGFIFWRNAMGWYRQAPGKEREFVARISSSGGSTYYADSVKGRFTISRDNAKNTVYLQMNSLKPEDTAVYYCNADVWYRYGYFRYDYWGQGTQVTVSS | high polyreactivity
QVQLVESGGGLVQAGGSLRLSCAASGRIFASYVMGWYRQAPGKERELVAAISYGGSRTYYADSVKGRFTISRDNAKNTVYLQMNSLKPEDTAVYYCNARSKFYYHYWMDYWGQGTQVTVSS | high polyreactivity
QVQIVESGGGLVQAGGSLRLSCAASGRIFRVNWIGWYRQAPGKESELVAAIRRSGGSTYYADSVKGRFTISRDNAKNTVYLQMNSLKPEDTAVYFCAAPVRQSSYTRYDSWGQGTQVTVSS | high polyreactivity
QVQHVESGGGLDQAGGSLRLSCAASGRIFYANAMGWYRQAPRKERELVAAIDWSGGSTYYADSVKGRFTISRDNAKNTVYLQMNSLKPEDTAVYYCAGPYHYYGNSVGYADYVYWGQGTQVTVSS | low polyreactivity
QVQLVESGGGLVQAGGSLRLSCAASGRIFRRYTIGWYRQAPGKEWELVAGISSGGSTKYADSVKGRFTISRDNAKNTVYLQMNSLKPEDTAVYYCNRRCPIYGSRFGYYYWGQGTQVTVSS | high polyreactivity
